Experimental findings from US7754216B2, “Method of treating multiple sclerosis with anti-K6 antibody” (Mayo Foundation for Medical Education and Research, priority 2002, dated 2010) are described below.

Data set [1] deals with K6 mRNA in spinal cord. As to the kind of experiment: K6 mRNA in spinal cord after kainic acid excitotoxic injury. The following applies: three days after intraperitoneal KA. The class given is in vivo, rat. An excerpt:
Levels of K6 mRNA in adult rat spinal cord were increased in both white and gray matter following kainic acid (KA)-induced excitotoxic injury. Dark-field photomicrographs (FIG. 1) show the autoradiographic localization of K6 mRNA in a transverse section through the spinal cord of a control rat, and in parallel sections of paired experimental rats at 3 and 7 days after intraperitoneal injection of KA. By three days after KA treatment, K6 mRNA was 2-fold higher in the white matter and 1.5-fold higher in the dorsal horn (DH) and ventral horn (VH) of the spinal cord gray matter, compared to controls (P<0.05).

The subject of data set [2] is collagen type I.
Data set [3] deals with fibronectin.
The subject of data set [4] is laminin.
Data set [5] addresses rat myelin basic protein (MBP) (UniProt P02688).
UniProt P02688, sequence (P02688 2-195): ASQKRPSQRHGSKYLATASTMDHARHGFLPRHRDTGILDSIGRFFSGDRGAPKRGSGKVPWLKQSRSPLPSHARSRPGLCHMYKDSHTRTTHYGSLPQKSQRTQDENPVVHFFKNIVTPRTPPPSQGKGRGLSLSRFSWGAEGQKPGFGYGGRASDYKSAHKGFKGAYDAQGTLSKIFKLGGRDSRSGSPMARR
The target in data set [6] is T1, recombinant rat myelin oligodendrocyte glycoprotein (αMOG), extracellular domain, amino acids 1-125 (UniProt Q63345).
T1 sequence: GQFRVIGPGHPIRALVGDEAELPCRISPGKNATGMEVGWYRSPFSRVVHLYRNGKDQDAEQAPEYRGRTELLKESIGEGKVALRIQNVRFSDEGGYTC

With `C=C(C)[C@H]1CN[C@H](C(=O)O)[C@H]1CC(=O)O` [KA, kainic acid], in data set [1], the “K6 mRNA in dorsal horn (DH) and ventral horn (VH) gray matter compared to controls” value is 1.5 fold; the “K6 mRNA in spinal cord white matter compared to controls” value is 2 fold.
As to “K6 (recombinant; species not stated where used)”, the “degradation on 7.5% SDS-PAGE” value is “Collagen type I was degraded within 5 minutes of K6 addition” in data set [2]; “Fibronectin was partially degraded within 1 hour of K6 addition and was completely degraded by 24 hours” in data set [3]; “Laminin was partially degraded by one hour after K6 addition, and was completely degraded by 16 hours” in data set [4].
recombinant rat K6 (r-K6): the “degradation on 16.5% Tricine SDS-PAGE” value is “MBP was partially degraded by 10 minutes after addition of K6, and showed much greater levels of degradation at 30 minutes and 60 minutes” in data set [5]; “αMOG was partially degraded by 1 hour after addition of K6, and was completely degraded by 4 hours” in data set [6].
